Patent EP4177273A1

Tests used:
[1] = biological target: human Claudin 18 splice variant 2 (CLDN18.2) (human); experiment: cell-based or functional assay
[2] = biological target: human Claudin 18 splice variant 2 (CLDN18.2) (human); experiment: FACS with FITC-labeled IMAB362 on MiaPaCa-2-LVT cells 2 days after transduction with human CLDN18.2
[3] = biological target: human Claudin 18 splice variant 2 (CLDN18.2) (human); experiment: FACS with FITC-labeled IMAB362 on DANG-LVT cells 2 days after transduction with human CLDN18.2
[4] = biological target: human Claudin 18 splice variant 2 (CLDN18.2) (human); experiment: FACS, 2E5 Panc05.04 cells/100 µl stained with 50 µg/ml IMAB362
[5] = biological target: human Claudin 18 splice variant 2 (CLDN18.2) (human); experiment: FACS with FITC-labeled IMAB362 on Patu8902-LVT cells 2 days after transduction with human CLDN18.2
[6] = biological target: human Claudin 18 splice variant 2 (CLDN18.2) (human); experiment: FACS, 2E5 Patu8988S cells/100 µl stained with 50 µg/ml IMAB362
[7] = biological target: human Claudin 18 splice variant 2 (CLDN18.2) (human); experiment: FACS with FITC-labeled IMAB362 on Suit2-LVT cells 2 days after transduction with human CLDN18.2
[8] = biological target: human Claudin 18 splice variant 2 (CLDN18.2) (human); experiment: FACS with FITC-labeled IMAB362 on YAPC-LVT cells 2 days after transduction with human CLDN18.2
[9] = biological target: human Claudin 18 splice variant 2 (CLDN18.2) (human); experiment: FACS with FITC-labeled IMAB362 on HPAC-LVT cells 2 days after transduction with human CLDN18.2
[10] = biological target: human Claudin 18 splice variant 2 (CLDN18.2) (human); experiment: FACS with FITC-labeled IMAB362 on BxPC3-LVT cells 2 days after transduction with human CLDN18.2
[11] = biological target: human Claudin 18 splice variant 2 (CLDN18.2) (human); experiment: FACS with FITC-labeled IMAB362 on CAPAN1-LVT cells 2 days after transduction with human CLDN18.2

Question: Which results are given for IMAB362 (antibody)?
Answer: ADCC EC50 (ng/ml), BxPC3 LVT cells, human PBMC E:T 40:1 [1]: 47.7 ng/mL; ADCC EC50 (ng/ml), CAPAN1-LVT cells, human PBMC E:T 40:1 [1]: 65 ng/mL; ADCC EC50 (ng/ml), DANG cells (endogenous CLDN18.2), human PBMC E:T 40:1 [1]: 4980 ng/mL; ADCC EC50 (ng/ml), DANG-LVT cells, human PBMC E:T 40:1 [1]: 52.3 ng/mL; ADCC EC50 (ng/ml), HPAC-LVT cells, human PBMC E:T 40:1 [1]: 117 ng/mL; ADCC EC50 (ng/ml), MiaPaCa2-LVT cells, human PBMC E:T 40:1 [1]: 23.4 ng/mL; ADCC EC50 (ng/ml), Panc05.04 cells (endogenous CLDN18.2), human PBMC E:T 40:1 [1]: 5730 ng/mL; ADCC EC50 (ng/ml), Patu8902-LVT cells, human PBMC E:T 40:1 [1]: 49.2 ng/mL; ADCC EC50 (ng/ml), Patu8988S cells (endogenous CLDN18.2), human PBMC E:T 40:1 [1]: 175 ng/mL; ADCC EC50 (ng/ml), Suit2-LVT cells, human PBMC E:T 40:1 [1]: 73.2 ng/mL; ADCC EC50 (ng/ml), YAPC-LVT cells, human PBMC E:T 40:1 [1]: 29.5 ng/mL; ADCC EC50, DANG/Panc05.04 cells, PBMCs of different donors [1]: 0.1 to 38 µg/mL; ADCC EC50, Patu8988S cells, PBMCs of different donors [1]: 0.01 to 1.4 µg/mL; ADCC Max. lysis (%), BxPC3 LVT cells, human PBMC E:T 40:1 [1]: 90.6%; ADCC Max. lysis (%), CAPAN1-LVT cells, human PBMC E:T 40:1 [1]: 92.6%; ADCC Max. lysis (%), DANG cells (endogenous CLDN18.2), human PBMC E:T 40:1 [1]: 52.5%; ADCC Max. lysis (%), DANG-LVT cells, human PBMC E:T 40:1 [1]: 85.9%; ADCC Max. lysis (%), HPAC-LVT cells, human PBMC E:T 40:1 [1]: 76.2%; ADCC Max. lysis (%), MiaPaCa2-LVT cells, human PBMC E:T 40:1 [1]: 78.1%; ADCC Max. lysis (%), Panc05.04 cells (endogenous CLDN18.2), human PBMC E:T 40:1 [1]: 67.1%; ADCC Max. lysis (%), Patu8902-LVT cells, human PBMC E:T 40:1 [1]: 74.1%; ADCC Max. lysis (%), Patu8988S cells (endogenous CLDN18.2), human PBMC E:T 40:1 [1]: 70.1%; ADCC Max. lysis (%), Suit2-LVT cells, human PBMC E:T 40:1 [1]: 81.2%; ADCC Max. lysis (%), YAPC-LVT cells, human PBMC E:T 40:1 [1]: 91.5%; CDC EC50 (ng/ml), CAPAN1-LVT cells, human serum pool [1]: 970 ng/mL; CDC EC50 (ng/ml), MiaPaCa2-LVT cells, human serum pool [1]: 340 ng/mL; CDC EC50 (ng/ml), Patu8902-LVT cells, human serum pool [1]: 291 ng/mL; CDC EC50, MiaPaCa-2-LVT cells pretreated with gemcitabine [1]: 4.68 µg/mL; CDC EC50, MiaPaCa-2-LVT, Suit2-LVT and CAPAN1-LVT cells, human serum [1]: 0.3 to 2.6 µg/mL; CDC EC50, medium cultivated MiaPaCa-2-LVT cells [1]: 7.67 µg/mL; CDC Max. lysis (%), CAPAN1-LVT cells, human serum pool [1]: 79.1%; CDC Max. lysis (%), MiaPaCa2-LVT cells, human serum pool [1]: 78.4%; CDC Max. lysis (%), Patu8902-LVT cells, human serum pool [1]: 76.7%; Transduction efficiency (% cells positive) [2]: 96.3%; Transduction efficiency (% cells positive) [3]: 87.5%; CLDN18 surface expression (FACS), % positive cells [4]: 15%; Transduction efficiency (% cells positive) [5]: 93%; CLDN18 surface expression (FACS), % positive cells [6]: 81.7%; Transduction efficiency (% cells positive) [7]: 92.2%; Transduction efficiency (% cells positive) [8]: 82.2%; Transduction efficiency (% cells positive) [9]: 97.3%; Transduction efficiency (% cells positive) [10]: 92.8%; Transduction efficiency (% cells positive) [11]: 89.6%
